± gives the uncertainty stated by the source.
B1: Membrane-associated guanylate kinase, WW and PDZ domain-containing protein 1, residues 352 to 401; numbered along this chain, Q96QZ7 (parent)
chain: TEELDSELELPAGWEKIEDPVYGIYYVDHINRKTQYENPVLEAKRKKQLE

Variants of: B1
Assay: abundance fitness (aPCA) (normalised: wild type 0, dead -1); higher = more abundant; growth selection in yeast, the domain comes from the species named
Settings: Homo sapiens

Abundance fitness: each site, then its substitutions
Y22: Q -0.156 ± 0.11; W -0.186 ± 0.077; F -0.122 ± 0.06; I -0.162 ± 0.092; R 0.056 ± 0.042; M -0.378 ± 0.099; A -0.041 ± 0.068; T -0.159 ± 0.091; V -0.051 ± 0.063; D -0.078 ± 0.069; P -0.24 ± 0.094; K 0.082 ± 0.055; S -0.035 ± 0.043; G -0.027 ± 0.051; N -0.199 ± 0.12; H 0.1 ± 0.11; C -0.061 ± 0.055; E -0.004 ± 0.06
G23: F -0.826 ± 0.3; E -0.801 ± 0.12; R -0.56 ± 0.048; P -0.958 ± 0.14; D -0.884 ± 0.093; H -0.822 ± 0.26; L -1.13 ± 0.059; S -0.79 ± 0.052; N -0.822 ± 0.14; W -0.8 ± 0.052; V -1.2 ± 0.11; M -0.9 ± 0.17; A -1.1 ± 0.083; K -0.762 ± 0.079; Q -1.34 ± 0.1; C -1.08 ± 0.21
V21: W -0.241 ± 0.075; M -0.517 ± 0.12; G -0.307 ± 0.057; L 0.026 ± 0.043; I -0.034 ± 0.098; H -0.232 ± 0.13; R -0.012 ± 0.049; Y -0.162 ± 0.063; K 0.012 ± 0.095; N -0.056 ± 0.072; A 0.097 ± 0.058; E 0.063 ± 0.081; S -0.165 ± 0.063; T 0.081 ± 0.058; F 0.041 ± 0.12; C -0.038 ± 0.058; Q -0.008 ± 0.099; P -0.322 ± 0.056
I17: C -0.252 ± 0.077; N -0.604 ± 0.14; F -0.258 ± 0.098; S -0.484 ± 0.061; M -0.041 ± 0.048; V 0.072 ± 0.065; Q -0.809 ± 0.16; G -0.602 ± 0.058; E -0.408 ± 0.059; A -0.227 ± 0.062; Y -0.06 ± 0.11; W -0.322 ± 0.04; P -0.836 ± 0.14; L -0.065 ± 0.069; H -0.241 ± 0.11; T -0.266 ± 0.058; R -0.01 ± 0.057; D -0.637 ± 0.095
Y26: M -0.552 ± 0.08; N -0.54 ± 0.16; Q -0.385 ± 0.069; R -0.549 ± 0.047; T -0.457 ± 0.1; A -0.321 ± 0.044; V -0.668 ± 0.05; L -0.741 ± 0.074; E -0.213 ± 0.054; F -0.137 ± 0.071; W -0.257 ± 0.055; G -0.395 ± 0.055; I -0.982 ± 0.15; P -0.404 ± 0.052; K -0.563 ± 0.056; S -0.337 ± 0.065
I24: H -0.64 ± 0.22; E 0.067 ± 0.082; L -0.223 ± 0.059; W -0.344 ± 0.07; C -0.22 ± 0.065; T 0.039 ± 0.047; F 0.015 ± 0.45; Q -0.225 ± 0.1; A -0.323 ± 0.07; Y -0.569 ± 0.14; V -0.066 ± 0.06; R -0.203 ± 0.042; D -0.387 ± 0.16; S -0.144 ± 0.074; G -0.208 ± 0.06; K -0.238 ± 0.097; P -0.057 ± 0.055
E15: H -0.393 ± 0.23; Y -0.46 ± 0.23; M -0.262 ± 0.079; K -0.328 ± 0.1; T -0.32 ± 0.085; R -0.38 ± 0.051; I -0.733 ± 0.18; C -0.794 ± 0.14; L -0.55 ± 0.055; F -0.764 ± 0.13; W -0.856 ± 0.056; Q -0.229 ± 0.086; N -0.449 ± 0.14; A -0.341 ± 0.057
W14: Q -0.631 ± 0.11; H -0.592 ± 0.079; D -0.539 ± 0.12; L -0.897 ± 0.08; Y -0.775 ± 0.24; C -0.324 ± 0.092; E -0.416 ± 0.057; T -0.254 ± 0.081; P -0.598 ± 0.046; R -0.438 ± 0.038; K -0.45 ± 0.12; F -0.458 ± 0.14; S -0.46 ± 0.078; V -0.5 ± 0.044; I 0.071 ± 0.13; G -0.475 ± 0.048; N 0.02 ± 0.13; A -0.686 ± 0.092
H29: Q -0.465 ± 0.086; S -0.26 ± 0.064; K -0.157 ± 0.071; C -0.502 ± 0.095; V -0.207 ± 0.038; D -0.535 ± 0.091; L -0.156 ± 0.042; E -0.354 ± 0.081; T 0.016 ± 0.064; N -0.01 ± 0.082; G -0.317 ± 0.042; A -0.229 ± 0.056; M -0.386 ± 0.057; P -0.515 ± 0.057; W -0.439 ± 0.049; R -0.217 ± 0.043; F -0.682 ± 0.14
D28: R -1.09 ± 0.059; N -0.303 ± 0.086; Q -0.934 ± 0.14; A -1.16 ± 0.095; F -1.12 ± 0.27; G -1.07 ± 0.065; H -0.634 ± 0.048; M -1.14 ± 0.15; C -1 ± 0.066; Y -0.861 ± 0.24; P -0.855 ± 0.14; K -0.764 ± 0.13; V -1.24 ± 0.067; E -0.696 ± 0.065
N31: V -0.756 ± 0.055; E -0.396 ± 0.069; L -0.325 ± 0.041; S -0.135 ± 0.064; C -0.123 ± 0.077; H -0.069 ± 0.075; Q -0.388 ± 0.12; K -0.265 ± 0.093; G 0.009 ± 0.04; D -0.28 ± 0.055; W -0.843 ± 0.13; M -0.444 ± 0.088; F -0.784 ± 0.15; A -0.188 ± 0.051; P -0.663 ± 0.071; Y -0.671 ± 0.085; T -0.134 ± 0.063; R -0.201 ± 0.061; I -0.802 ± 0.16
R32: P -0.564 ± 0.045; K -0.061 ± 0.083; W -0.519 ± 0.053; F -0.431 ± 0.063; H 0.125 ± 0.1; T -0.607 ± 0.093; A -0.249 ± 0.044; D 0.067 ± 0.087; L -0.119 ± 0.055; S -0.119 ± 0.041; I -0.387 ± 0.11; G -0.013 ± 0.039; E 0.002 ± 0.055; C -0.168 ± 0.07; V -0.333 ± 0.042
G13: Y -0.183 ± 0.066; P -0.41 ± 0.047; T -0.898 ± 0.15; R -0.59 ± 0.049; Q -0.282 ± 0.048; W -0.428 ± 0.06; V -0.703 ± 0.066; M -0.448 ± 0.057
K16: L -0.447 ± 0.079; Q -0.2 ± 0.1; G -0.561 ± 0.045; D -0.756 ± 0.17; I -0.134 ± 0.13; V -0.292 ± 0.052; T -0.49 ± 0.08; E -0.327 ± 0.095; C -0.245 ± 0.042; M -0.206 ± 0.1; P -1.11 ± 0.43; A -0.474 ± 0.087; F -0.688 ± 0.27; Y -0.902 ± 0.18; S -0.445 ± 0.044; H -1.03 ± 0.34; W -0.802 ± 0.081
V27: G -0.378 ± 0.04; W -0.242 ± 0.053; K 0.044 ± 0.062; T -0.26 ± 0.042; R -0.069 ± 0.044; E -0.229 ± 0.056; M 0.038 ± 0.068; A -0.096 ± 0.06; P -0.394 ± 0.055; N -0.34 ± 0.12; C -0.055 ± 0.062; Q -0.227 ± 0.087; I -0.178 ± 0.098; D 0.071 ± 0.084; L -0.073 ± 0.062; H -0.307 ± 0.061
I30: R -0.128 ± 0.038; Y -0.086 ± 0.1; D -0.459 ± 0.083; L -0.082 ± 0.054; A -0.093 ± 0.041; P -0.208 ± 0.076; C -0.322 ± 0.077; F -0.195 ± 0.041; S -0.279 ± 0.063; V -0.064 ± 0.044; N -0.397 ± 0.08; K -0.078 ± 0.067; M -0.311 ± 0.088; W -0.431 ± 0.072; E -0.079 ± 0.071; G -0.203 ± 0.042; T -0.256 ± 0.078; Q -0.215 ± 0.047
P20: W -0.339 ± 0.35; E -0.426 ± 0.33; M -0.314 ± 0.081
Y25: N -0.447 ± 0.077; D -0.333 ± 0.085; W -0.361 ± 0.061; I -0.053 ± 0.09; P -0.367 ± 0.077; G -0.299 ± 0.041; E -0.26 ± 0.082; F -0.148 ± 0.07; T -0.266 ± 0.061; A -0.278 ± 0.047; C -0.251 ± 0.069; V -0.079 ± 0.054; Q -0.14 ± 0.073; S -0.119 ± 0.044; L -0.593 ± 0.053; M -0.033 ± 0.075; K 0.007 ± 0.083; H -0.192 ± 0.092
T34: D -0.414 ± 0.094; A -0.413 ± 0.053; C 0.042 ± 0.074
D19: A -0.551 ± 0.086; Q -0.66 ± 0.051; I -0.633 ± 0.05; W -1.03 ± 0.085; N -0.611 ± 0.16; C -0.015 ± 0.044; S -0.163 ± 0.063; K -0.579 ± 0.2; L -0.985 ± 0.11; G -0.596 ± 0.044; H -0.114 ± 0.094; M -0.845 ± 0.068; Y -0.861 ± 0.078; R -0.855 ± 0.085
E18: C -0.132 ± 0.091; L -0.311 ± 0.062; A -0.014 ± 0.069; S -0.33 ± 0.081; W -0.745 ± 0.12; T 0.001 ± 0.08; Y -0.39 ± 0.13; P -0.549 ± 0.13; V -0.1 ± 0.068; N -0.03 ± 0.097; D -0.15 ± 0.073; R -0.461 ± 0.039; F -0.263 ± 0.067; K -0.269 ± 0.12; G -0.459 ± 0.047; M -0.231 ± 0.054; I -0.196 ± 0.11; Q -0.794 ± 0.45; H -0.094 ± 0.086
K33: G -0.414 ± 0.054; F -0.52 ± 0.15; E -0.488 ± 0.083; Y -0.331 ± 0.09; H -0.463 ± 0.14; A -0.057 ± 0.048; L -0.028 ± 0.039; D -0.066 ± 0.1; C -0.074 ± 0.074; S -0.222 ± 0.059; M -0.236 ± 0.081; W -0.347 ± 0.051; I -0.291 ± 0.083; Q -0.034 ± 0.046; N -0.169 ± 0.12; P -0.815 ± 0.13; V -0.028 ± 0.044; T -0.158 ± 0.066

Source: the Human Domainome abundance scans (Beltran et al. 2025)
